Where a chain is given by its changes, count along the chain named.
B1: Mutant 1, Fab displayed on yeast (CDRH2-CDRH3 combinatorial library) (Fab, V domains shown)
VH: EVQLVESGGGLVQPGRSLRLSCAASGFTFDDYAMHWVRQAPGKGLEWVGAINWNGGHRDYADSVEGRFTISRDNAKNSLYLQMNSLRAEDTAVYYCAKSQYLPTASSLDYWGQGTLVTVSS
VL: not shown
notes: same variable domains as the soluble Mutant 1 Fab; see its note
B2: Mutant 2, Fab displayed on yeast (CDRH2-CDRH3 combinatorial library) (Fab, V domains shown)
VH: B1 VH with A50T, R58S, S99T, Q100T
VL: not shown
notes: same variable domains as the soluble Mutant 2 Fab; see its note
B3: Mutant 3, Fab displayed on yeast (CDRH2-CDRH3 combinatorial library) (Fab, V domains shown)
VH: B1 VH with R58H, S99T, Q100T
VL: not shown
notes: same variable domains as the soluble Mutant 3 Fab; see its note
B4: Mutant 4, Fab displayed on yeast (CDRH2-CDRH3 combinatorial library) (Fab, V domains shown)
VH: B1 VH with G55S, R58H, S99T, Q100T
VL: not shown
notes: same variable domains as the soluble Mutant 4 Fab; see its note
B5: Mutant 5, Fab displayed on yeast (CDRH2-CDRH3 combinatorial library) (Fab, V domains shown)
VH: B1 VH with A50D, N52S, R58T, S99T, Q100T
VL: not shown
notes: same variable domains as the soluble Mutant 5 Fab; see its note
B6: Mutant 6, Fab displayed on yeast (CDRH2-CDRH3 combinatorial library) (Fab, V domains shown)
VH: B1 VH with S99T, Q100N
VL: not shown
notes: same variable domains as the soluble Mutant 6 Fab; see its note
B7: Mutant 7, Fab displayed on yeast (CDRH2-CDRH3 combinatorial library) (Fab, V domains shown)
VH: B1 VH with S99A, Q100H
VL: not shown
notes: same variable domains as the soluble Mutant 7 Fab; see its note
B8: Mutant 8, Fab displayed on yeast (CDRH2-CDRH3 combinatorial library) (Fab, V domains shown)
VH: B1 VH with V93L, S99T, Q100T
VL: not shown
notes: same variable domains as the soluble Mutant 8 Fab; see its note
B9: Mutant 5, Fab format (Fab, V domains shown)
VH: B1 VH with A50D, N52S, R58T, S99T, Q100T
VL: not shown
notes: Soluble Fab as for Mutant 1; also called mutation 5
B10: CDRH2 library mutant AAIAWNGGHR (Fab, V domains shown)
VH: B1 VH with G49A, N52A, S99V, Q100S, P103S
VL: not shown
B11: CDRH2 library mutant AAIAWNGGHS (Fab, V domains shown)
VH: B1 VH with G49A, N52A, R58S, S99V, Q100S, P103S
VL: not shown
B12: CDRH2 library mutant AAIAWNGGHT (Fab, V domains shown)
VH: B1 VH with G49A, N52A, R58T, S99V, Q100S, P103S
VL: not shown
B13: CDRH2 library mutant AAINWNGGHH (Fab, V domains shown)
VH: B1 VH with G49A, R58H, S99V, Q100S, P103S
VL: not shown
B14: CDRH2 library mutant AAINWNGGHR (Fab, V domains shown)
VH: B1 VH with G49A, S99V, Q100S, P103S
VL: not shown
B15: CDRH2 library mutant AAINWNSGHQ (Fab, V domains shown)
VH: B1 VH with G49A, G55S, R58Q, S99V, Q100S, P103S
VL: not shown
B16: CDRH2 library mutant AAINWNSGHR (Fab, V domains shown)
VH: B1 VH with G49A, G55S, S99V, Q100S, P103S
VL: not shown
B17: CDRH2 library mutant AAISWNGGHA (Fab, V domains shown)
VH: B1 VH with G49A, N52S, R58A, S99V, Q100S, P103S
VL: not shown
B18: CDRH2 library mutant AAISWNGGHH (Fab, V domains shown)
VH: B1 VH with G49A, N52S, R58H, S99V, Q100S, P103S
VL: not shown
B19: CDRH2 library mutant AAISWNGGHQ (Fab, V domains shown)
VH: B1 VH with G49A, N52S, R58Q, S99V, Q100S, P103S
VL: not shown
B20: CDRH2 library mutant AAISWNGGHR (Fab, V domains shown)
VH: B1 VH with G49A, N52S, S99V, Q100S, P103S
VL: not shown
B21: CDRH2 library mutant AAISWNGGHS (Fab, V domains shown)
VH: B1 VH with G49A, N52S, R58S, S99V, Q100S, P103S
VL: not shown
B22: CDRH2 library mutant AAISWNGGHT (Fab, V domains shown)
VH: B1 VH with G49A, N52S, R58T, S99V, Q100S, P103S
VL: not shown
B23: CDRH2 library mutant AAITWNGGHR (Fab, V domains shown)
VH: B1 VH with G49A, N52T, S99V, Q100S, P103S
VL: not shown
B24: CDRH2 library mutant AAITWNGGHT (Fab, V domains shown)
VH: B1 VH with G49A, N52T, R58T, S99V, Q100S, P103S
VL: not shown
B25: CDRH2 library mutant GAINWNGGHR (Fab, V domains shown)
VH: B1 VH with S99V, Q100S, P103S
VL: not shown
B26: CDRH2 library mutant GAINWNGGHT (Fab, V domains shown)
VH: B1 VH with R58T, S99V, Q100S, P103S
VL: not shown
B27: CDRH2 library mutant GAISWNGGHH (Fab, V domains shown)
VH: B1 VH with N52S, R58H, S99V, Q100S, P103S
VL: not shown
B28: CDRH2 library mutant GAISWNGGHR (Fab, V domains shown)
VH: B1 VH with N52S, S99V, Q100S, P103S
VL: not shown
B29: CDRH2 library mutant GAISWNGGHT (Fab, V domains shown)
VH: B1 VH with N52S, R58T, S99V, Q100S, P103S
VL: not shown
B30: CDRH2 library mutant GAITWNGGHR (Fab, V domains shown)
VH: B1 VH with N52T, S99V, Q100S, P103S
VL: not shown
B31: CDRH2 library mutant SAINWNGGHR (Fab, V domains shown)
VH: B1 VH with G49S, S99V, Q100S, P103S
VL: not shown
B32: CDRH2 library mutant SAISWNGGHH (Fab, V domains shown)
VH: B1 VH with G49S, N52S, R58H, S99V, Q100S, P103S
VL: not shown
B33: CDRH2 library mutant SAISWNGGHQ (Fab, V domains shown)
VH: B1 VH with G49S, N52S, R58Q, S99V, Q100S, P103S
VL: not shown
B34: CDRH2 library mutant SAISWNGGHR (Fab, V domains shown)
VH: B1 VH with G49S, N52S, S99V, Q100S, P103S
VL: not shown
B35: CDRH2 library mutant SAISWNGGHT (Fab, V domains shown)
VH: B1 VH with G49S, N52S, R58T, S99V, Q100S, P103S
VL: not shown
B36: CDRH2 library mutant SSIAWNGGHW (Fab, V domains shown)
VH: B1 VH with G49S, A50S, N52A, R58W, S99V, Q100S, P103S
VL: not shown

Target: T1, biotinylated TNF alpha (human (definition in paragraph 32)); the …, UniProt P01375 77-233, biotinylated (site not stated))
T1 construct: Used for FACS sorting of yeast libraries and immobilised on streptavidin sensors for BLI; also called TNFα; Tumor Necrosis Factor Alpha
T1 sequence (P01375 77-233 limits assumed): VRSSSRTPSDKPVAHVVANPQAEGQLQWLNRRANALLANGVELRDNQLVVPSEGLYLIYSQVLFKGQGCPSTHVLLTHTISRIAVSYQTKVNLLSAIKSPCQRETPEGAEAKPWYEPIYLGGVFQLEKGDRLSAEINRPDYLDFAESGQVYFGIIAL
Assay: yeast display FACS sorting on biotinylated TNF alpha, NGS enrichment, CDRH2-CDRH3 library

Point of comparison: B6, Enrichment 238000. Against it:
- B1 — lower, 217000
- B2 — higher, 1.47e+06
- B3 — lower, 111000
- B4 — lower, 186000
- B5 — higher, 512000
- B7 — lower, 59400
- B8 — the same, 238000

Target: T1, biotinylated TNF alpha
Assay: BLI (Octet Red96), Fab in solution, biotinylated TNF alpha on streptavidin sensors, 1:1 global fit
Experimental: After saturation the sensors in a blocking solution containing 10 μg/mL biotin (Sigma-Aldrich, Saint-Louis, United States), the association and dissociation are measured over 20 and 40 minutes respectively. […] During the analysis, the reference is subtracted from each curve and a 1:1 global Langmuir model is applied in order to get the affinity parameters.

B9 was tested, and the Kd was 9 pM.

Target: T1, biotinylated TNF alpha
Assay: yeast display FACS sorting on biotinylated TNF alpha, NGS enrichment, CDRH2 library

Point of comparison: B22, Enrichment 193. Against it:
- B10 — higher, 197
- B11 — lower, 93
- B12 — lower, 144
- B13 — lower, 132
- B14 — higher, 417
- B15 — lower, 105
- B16 — lower, 122
- B17 — lower, 75
- B18 — lower, 164
- B19 — lower, 192
- B20 — higher, 382
- B21 — lower, 82
- B23 — higher, 213
- B24 — lower, 91
- B25 — higher, 222
- B26 — lower, 62
- B27 — lower, 66
- B28 — higher, 279
- B29 — lower, 133
- B30 — lower, 64
- B31 — lower, 79
- B32 — lower, 87
- B33 — lower, 104
- B34 — higher, 207
- B35 — lower, 100
- B36 — lower, 128

Reference: US20230142800A1 (COMMISSARIAT A L ENERGIE ATOMIQUE ET AUX ENERGIES …, published 2023)
